Laboratory results from patent US20220229068A1, “DETECTION OF PROTEIN TO PROTEIN INTERACTIONS” (THE GOVERNING COUNCIL OF THE UNIVERSITY OF TORONTO, priority 2019, published 2022).
Blank lines part the entries; values can stand above or below the substance they belong to.

Experiments:
Assay in all cases: SIMPL ELISA, bait-IN/prey-CIC
[1] = molecular target: CXCR2 (prey, CIC format) (human) (UniProt P25025)
[2] = molecular target: SMAD4 (prey, CIC format) (human) (UniProt Q13485)
[3] = molecular target: T1, MAP2K5 (prey, CIC format) (human) (UniProt Q13163)
T1 sequence (looked up): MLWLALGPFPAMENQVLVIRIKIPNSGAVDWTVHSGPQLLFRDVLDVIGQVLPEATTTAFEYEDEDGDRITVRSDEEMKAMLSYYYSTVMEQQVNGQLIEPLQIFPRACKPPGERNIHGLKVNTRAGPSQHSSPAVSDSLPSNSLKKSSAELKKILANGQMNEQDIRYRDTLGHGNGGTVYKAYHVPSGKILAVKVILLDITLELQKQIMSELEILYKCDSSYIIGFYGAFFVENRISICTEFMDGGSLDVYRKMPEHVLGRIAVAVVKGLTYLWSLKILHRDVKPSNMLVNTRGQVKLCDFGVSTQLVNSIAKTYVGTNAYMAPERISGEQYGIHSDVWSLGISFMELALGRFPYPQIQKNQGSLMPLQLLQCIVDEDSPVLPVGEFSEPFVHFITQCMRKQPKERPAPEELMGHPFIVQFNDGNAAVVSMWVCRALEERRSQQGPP

[4] = molecular target: T2, ORC4 (prey, CIC format) (human) (UniProt O43929)
T2 sequence (looked up): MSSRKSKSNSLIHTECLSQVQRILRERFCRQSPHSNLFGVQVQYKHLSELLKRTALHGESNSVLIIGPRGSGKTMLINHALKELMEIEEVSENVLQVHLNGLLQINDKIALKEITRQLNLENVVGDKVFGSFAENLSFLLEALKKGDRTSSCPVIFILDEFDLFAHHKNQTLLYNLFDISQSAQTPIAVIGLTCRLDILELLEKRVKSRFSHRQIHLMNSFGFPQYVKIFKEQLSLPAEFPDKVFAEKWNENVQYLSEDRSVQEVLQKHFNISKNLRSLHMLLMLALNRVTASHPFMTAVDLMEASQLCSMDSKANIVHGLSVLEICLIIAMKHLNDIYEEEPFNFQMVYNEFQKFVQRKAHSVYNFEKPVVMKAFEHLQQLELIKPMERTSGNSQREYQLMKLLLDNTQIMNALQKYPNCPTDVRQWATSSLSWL

[5] = molecular target: NFE2L1 (prey, CIC format) (human) (UniProt Q14494)
[6] = molecular target: T3, NTF4 (prey, CIC format) (human) (UniProt P34130)
T3 sequence (looked up): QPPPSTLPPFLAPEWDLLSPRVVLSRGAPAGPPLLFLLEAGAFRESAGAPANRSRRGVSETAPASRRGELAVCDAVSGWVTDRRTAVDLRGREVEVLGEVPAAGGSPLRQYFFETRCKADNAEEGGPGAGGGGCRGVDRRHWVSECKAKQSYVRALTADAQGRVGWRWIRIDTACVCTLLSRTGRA

[7] = molecular target: T4, MAD1L1 (prey, CIC format) (human) (UniProt Q9Y6D9)
T4 sequence (looked up): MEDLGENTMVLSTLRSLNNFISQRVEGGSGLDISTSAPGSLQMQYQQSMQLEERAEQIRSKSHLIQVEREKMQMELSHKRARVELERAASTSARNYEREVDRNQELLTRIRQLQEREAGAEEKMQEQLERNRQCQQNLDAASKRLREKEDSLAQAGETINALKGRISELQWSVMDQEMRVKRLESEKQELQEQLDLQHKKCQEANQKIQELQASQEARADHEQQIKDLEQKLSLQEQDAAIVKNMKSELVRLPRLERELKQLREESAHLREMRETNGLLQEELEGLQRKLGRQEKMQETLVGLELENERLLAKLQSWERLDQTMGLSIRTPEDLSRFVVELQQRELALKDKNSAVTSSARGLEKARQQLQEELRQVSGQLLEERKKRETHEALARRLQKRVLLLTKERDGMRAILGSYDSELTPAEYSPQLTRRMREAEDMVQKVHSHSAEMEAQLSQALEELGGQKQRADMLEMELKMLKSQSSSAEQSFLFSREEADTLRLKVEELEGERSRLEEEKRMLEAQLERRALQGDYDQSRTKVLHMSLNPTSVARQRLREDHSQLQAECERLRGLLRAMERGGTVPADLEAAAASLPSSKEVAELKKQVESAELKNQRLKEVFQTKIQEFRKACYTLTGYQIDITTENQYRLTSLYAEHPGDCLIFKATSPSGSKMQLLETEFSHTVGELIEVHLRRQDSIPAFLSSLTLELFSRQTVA

[8] = molecular target: T5, CASP7 (prey, CIC format) (human) (UniProt P55210)
T5 sequence (looked up): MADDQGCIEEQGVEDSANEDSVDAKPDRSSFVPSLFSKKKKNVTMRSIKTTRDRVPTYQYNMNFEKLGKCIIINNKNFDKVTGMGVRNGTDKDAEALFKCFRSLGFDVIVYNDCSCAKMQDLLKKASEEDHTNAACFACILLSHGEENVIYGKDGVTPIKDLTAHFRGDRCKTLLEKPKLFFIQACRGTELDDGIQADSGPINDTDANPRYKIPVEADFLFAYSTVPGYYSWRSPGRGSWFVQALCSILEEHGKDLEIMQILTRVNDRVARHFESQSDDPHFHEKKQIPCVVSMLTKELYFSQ

[9] = molecular target: RAN (prey, CIC format) (human) (UniProt P62826)
[10] = molecular target: SKP2 (prey, CIC format) (human) (UniProt Q13309)
[11] = molecular target: BTRC (prey, CIC format) (human) (UniProt Q9Y297)
Sequence of BTRC (prey, CIC format) (human) (Q9Y297 whole entry): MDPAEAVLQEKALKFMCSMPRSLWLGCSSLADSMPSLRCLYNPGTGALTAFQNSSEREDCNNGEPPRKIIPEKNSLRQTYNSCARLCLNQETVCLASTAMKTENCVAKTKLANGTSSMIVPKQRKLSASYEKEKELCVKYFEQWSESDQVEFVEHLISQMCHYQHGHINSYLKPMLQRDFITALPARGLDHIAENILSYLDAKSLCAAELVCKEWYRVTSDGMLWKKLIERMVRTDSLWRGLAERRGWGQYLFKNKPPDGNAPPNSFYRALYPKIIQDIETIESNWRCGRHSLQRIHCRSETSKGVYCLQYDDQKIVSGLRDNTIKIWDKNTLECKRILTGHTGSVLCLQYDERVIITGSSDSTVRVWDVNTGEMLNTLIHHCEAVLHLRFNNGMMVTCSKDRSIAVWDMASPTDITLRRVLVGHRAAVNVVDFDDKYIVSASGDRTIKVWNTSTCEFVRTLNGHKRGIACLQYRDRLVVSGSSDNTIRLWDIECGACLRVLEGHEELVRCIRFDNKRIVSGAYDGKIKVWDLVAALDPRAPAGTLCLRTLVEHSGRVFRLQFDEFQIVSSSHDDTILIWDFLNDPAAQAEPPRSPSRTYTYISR

Sequence of CXCR2 (prey, CIC format) (human) (P25025 whole entry): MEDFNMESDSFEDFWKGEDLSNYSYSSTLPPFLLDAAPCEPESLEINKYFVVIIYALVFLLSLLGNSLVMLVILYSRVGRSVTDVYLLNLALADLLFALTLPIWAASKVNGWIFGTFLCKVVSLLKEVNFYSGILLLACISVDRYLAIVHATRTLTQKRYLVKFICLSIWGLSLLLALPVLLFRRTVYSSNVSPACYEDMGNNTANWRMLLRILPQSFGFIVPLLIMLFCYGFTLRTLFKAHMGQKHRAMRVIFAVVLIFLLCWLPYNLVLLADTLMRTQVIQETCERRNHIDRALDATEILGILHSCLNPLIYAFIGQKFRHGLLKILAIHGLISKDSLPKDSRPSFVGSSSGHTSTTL
Sequence of RCC1 (bait, IN format) (P18754 whole entry): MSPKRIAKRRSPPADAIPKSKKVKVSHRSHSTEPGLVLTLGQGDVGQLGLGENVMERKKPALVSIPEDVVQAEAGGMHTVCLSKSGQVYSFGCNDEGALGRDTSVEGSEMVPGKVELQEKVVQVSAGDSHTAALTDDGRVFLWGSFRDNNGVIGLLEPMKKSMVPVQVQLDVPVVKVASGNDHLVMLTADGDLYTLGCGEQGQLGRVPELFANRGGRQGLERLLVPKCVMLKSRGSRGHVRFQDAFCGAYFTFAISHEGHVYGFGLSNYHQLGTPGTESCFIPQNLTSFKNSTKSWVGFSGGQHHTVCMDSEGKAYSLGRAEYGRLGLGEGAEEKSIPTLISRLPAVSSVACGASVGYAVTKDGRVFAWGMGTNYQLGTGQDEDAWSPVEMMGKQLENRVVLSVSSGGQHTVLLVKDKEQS
Sequence of SMAD4 (prey, CIC format) (human) (Q13485 whole entry): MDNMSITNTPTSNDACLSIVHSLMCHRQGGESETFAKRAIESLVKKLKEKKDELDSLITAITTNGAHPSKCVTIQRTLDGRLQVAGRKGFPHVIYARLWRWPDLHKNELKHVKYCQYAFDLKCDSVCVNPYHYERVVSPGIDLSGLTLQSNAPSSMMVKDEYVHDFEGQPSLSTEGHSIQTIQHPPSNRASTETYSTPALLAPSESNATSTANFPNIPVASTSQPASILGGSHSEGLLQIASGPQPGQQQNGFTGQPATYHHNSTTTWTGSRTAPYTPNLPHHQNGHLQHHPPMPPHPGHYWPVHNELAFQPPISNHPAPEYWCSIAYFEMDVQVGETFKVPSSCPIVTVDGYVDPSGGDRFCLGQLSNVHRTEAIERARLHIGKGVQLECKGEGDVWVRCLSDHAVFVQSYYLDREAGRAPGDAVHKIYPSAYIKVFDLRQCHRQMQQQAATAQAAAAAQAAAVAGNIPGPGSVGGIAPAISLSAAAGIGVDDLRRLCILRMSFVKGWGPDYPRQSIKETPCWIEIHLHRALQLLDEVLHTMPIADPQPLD
Sequence of SKP2 (prey, CIC format) (human) (Q13309 whole entry): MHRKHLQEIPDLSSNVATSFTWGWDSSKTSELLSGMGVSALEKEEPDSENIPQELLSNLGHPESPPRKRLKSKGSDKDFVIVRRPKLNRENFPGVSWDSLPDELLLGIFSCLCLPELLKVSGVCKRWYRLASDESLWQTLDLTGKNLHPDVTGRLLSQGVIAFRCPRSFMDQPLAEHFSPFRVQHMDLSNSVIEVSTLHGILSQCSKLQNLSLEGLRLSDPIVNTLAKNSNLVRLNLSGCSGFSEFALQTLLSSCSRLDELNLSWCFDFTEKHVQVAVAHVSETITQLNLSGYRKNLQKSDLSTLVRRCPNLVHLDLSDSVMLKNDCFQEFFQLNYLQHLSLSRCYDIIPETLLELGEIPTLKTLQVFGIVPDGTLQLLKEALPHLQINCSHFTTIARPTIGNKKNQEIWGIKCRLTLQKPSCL
Sequence of NFE2L1 (prey, CIC format) (human) (Q14494 whole entry): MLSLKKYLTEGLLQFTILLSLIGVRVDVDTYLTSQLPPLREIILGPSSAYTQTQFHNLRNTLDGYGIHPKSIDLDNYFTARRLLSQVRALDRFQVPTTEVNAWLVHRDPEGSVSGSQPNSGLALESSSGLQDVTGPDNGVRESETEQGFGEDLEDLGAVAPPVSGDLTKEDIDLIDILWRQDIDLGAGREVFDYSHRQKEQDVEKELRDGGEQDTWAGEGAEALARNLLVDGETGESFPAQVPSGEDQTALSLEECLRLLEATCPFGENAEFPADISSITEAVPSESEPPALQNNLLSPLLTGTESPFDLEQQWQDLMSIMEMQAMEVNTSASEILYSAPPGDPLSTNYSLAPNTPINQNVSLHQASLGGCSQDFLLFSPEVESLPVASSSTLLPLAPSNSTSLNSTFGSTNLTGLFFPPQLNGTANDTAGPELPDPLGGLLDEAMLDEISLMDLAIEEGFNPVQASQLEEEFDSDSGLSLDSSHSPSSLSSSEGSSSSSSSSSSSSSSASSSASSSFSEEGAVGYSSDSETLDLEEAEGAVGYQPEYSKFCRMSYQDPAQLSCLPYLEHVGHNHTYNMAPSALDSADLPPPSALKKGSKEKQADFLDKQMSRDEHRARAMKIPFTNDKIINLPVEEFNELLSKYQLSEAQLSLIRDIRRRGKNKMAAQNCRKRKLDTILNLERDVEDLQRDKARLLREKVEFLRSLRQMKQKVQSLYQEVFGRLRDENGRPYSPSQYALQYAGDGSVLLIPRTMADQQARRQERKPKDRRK

PLU mean [1]: 0.178 | PLU mean [2]: 0.101 | PLU mean [3]: 0.27 | PLU mean [4]: 0.103
Substance: CXCL1 (bait, IN format) (from UniProt P09341 35-107) (ligand)

PLU mean [5]: 0.0819 | PLU mean [6]: 0.133 | PLU mean [7]: 2.52
Substance: MAD2L1 (bait, IN format) (from UniProt Q13257 1-205)

PLU mean [8]: 0.125 | PLU mean [9]: 0.748
Substance: RCC1 (bait, IN format) (from UniProt P18754 1-421)

PLU mean [1]: 0.107 | PLU mean [10]: 0.376 | PLU mean [11]: 1.26
Substance: SKP1A (bait, IN format) (from UniProt P63208 1-163)
